From article PMC8096149

Tests used:
Assay in all cases: flow cytometry on cells
[1] = target: Bovine2.2 H31TAG scFv with AzF
[2] = target: Bovine2.2 H31TAG scFv with OPG
[3] = target: Bovine2.2 H54TAG scFv with AzF
[4] = target: Bovine2.2 H54TAG scFv with OPG
[5] = target: Bovine2.2 L93TAG scFv with AzF
[6] = target: Bovine2.2 L93TAG scFv with OPG
[7] = target: Donkey1.1 H31TAG scFv with AzF
[8] = target: Donkey1.1 H31TAG scFv with AzMF
[9] = target: Donkey1.1 H31TAG scFv with OPG
[10] = target: Donkey1.1 H54TAG scFv with AzF
[11] = target: Donkey1.1 H54TAG scFv with OPG
[12] = target: Donkey1.1 L93TAG scFv with AzF
[13] = target: Donkey1.1 L93TAG scFv with OPG

| Substance | Kd [1] | Kd [2] | Kd [3] | Kd [4] | Kd [5] | Kd [6] | Kd [7] | antigen binding level relative to wild-type at 200 nM IgG (% of wild-type) [7] | antigen binding level relative to wild-type at 200 nM IgG (% of wild-type) [8] | Kd [9] | antigen binding level relative to wild-type at 200 nM IgG (% of wild-type) [9] | Kd [10] | Kd [11] | Kd [12] | Kd [13] |
| --- | --- | --- | --- | --- | --- | --- | --- | --- | --- | --- | --- | --- | --- | --- | --- |
| biotinylated bovine IgG (natural protein) | 546 nM | 601 nM | 380 nM | 183 nM | 332 nM | 179 nM | – | – | – | – | – | – | – | – | – |
| biotinylated donkey IgG (natural protein) | – | – | – | – | – | – | 561 nM | < 10 | < 10 | 365 nM | < 10 | 213 nM | 55.8 nM | 125 nM | 45 nM |
